Data: patent publication US7459439B2, “Granulysin peptides and methods of use thereof” (The Regents of the University of California, priority 2003, dated 2008)

Tests used:
Propionibacterium acnes = experiment: Killing of / antimicrobial activity against P. acnes; conditions: FIG. 1-3
Excerpt: The susceptibility of a particular microbe or virus to killing or inhibition by granulysins may be determined by in vitro testing, as detailed in the experimental section. Typically a culture of the microbe is combined with granulysins at varying concentrations for a period of time sufficient to allow the protein to act, usually ranging from about one hour to one day. The viable microbes are then counted, and the level of killing determined.

[1] = tested on: IL-12 production by monocytes; experiment: Inhibition of IL-12 production by monocytes; format: cell-based; conditions: FIG. 4a
[2] = tested on: TNF-α production by monocytes; experiment: Inhibition of TNF-α production by monocytes; format: cell-based; conditions: FIG. 4b
[3] = tested on: bacteria, parasites and fungi; experiment: Range of antimicrobial activity of granulysin; format: cell-based; conditions: experiments performed in applicant's laboratory
Excerpt: Granulysin is a 9 kDa basic (arginine-rich) protein and is a member of a larger group of proteins, referred to as saposin-like proteins (sphingolipid activator protein like protein=SAPLIP). This family has been highly conserved for almost a billion years, from amoebas to humans. […] This family includes NK-lysin, isolated from pig intestines, and amoebapores, used by amoebas to kill bacterial prey. […] We have synthesized a shorter granulysin peptide 20 amino acid in length and tested for antimicrobial activity. Further modification of this peptide was done by substituting a more hydrophobic amino acid residue, tryptophan at position 44, and tested for antimicrobial activity.

M. tuberculosis = conditions: cited from earlier work
bacterial membranes = conditions: Ernst et al. (2000); cited from earlier work

Row | Molecule | killing of P. acnes / antimicrobial activity against P. acnes (Propionibacterium acnes) | inhibition of IL-12 production by monocytes [1] | inhibition of TNF-α production by monocytes [2] | range of antimicrobial activity [3] | effect on M. tuberculosis by electron microscopy (M. tuberculosis) | alteration of bacterial membranes (bacterial membranes)
1 | granulysin peptide #31-50: Synthetic peptide of residues 31-50 of human granulysin, SEQ ID NO:2 (TRVCRTGRSRWRDVCRNFMR) (TRVCRTGRSRWRDVCRNFMR; H. sapiens) | effective at killing P. acnes |  |  |  |  | 
2 | granulysin peptide #31-50(W44): Modified 20 amino acid granulysin peptide 31-50 with tryptophan substituted at position 44; probably SEQ ID NO:3 TRVSRTGRSRWRDWSRNFMR |  | able to inhibit IL-12 | able to inhibit |  |  | 
3 | granulysin: 9 kDa arginine-rich protein, late T cell activation marker, member of saposin-like proteins (protein, H. sapiens) GRDYRTCLTIVQKLKKMVDKPTQRSVSNAATRVCRTGRSRWRDVCRNFMRRYQSRVIQGLVAGETAQQICEDLR | effective at killing Propionibacterium acnes |  |  | wide range of antimicrobial activity against bacteria, parasites and fungi | trigger fluid accumulation in the periplasm of M. tuberculosis | increasing their permeability, inducing lesions on the surface of bacteria and separation of the cell wall and membranes from the cytoplasm
